Results on 7 molecules are retold here after patent publication US20140302063A1 (SECRETARY OF STATE FOR HEALTH, published 2014).

Holding throughout (test): ELISA, inactivated virus
(In general: ELISA stands for enzyme-linked immunosorbent assay.)

Test [1] deals with A/Duck/Sing-Q/97 (H5N3) inactivated viral preparation (Influenza A virus A/Duck/Sing-Q/97 (H5N3)).
For test [2], the target named is A/mallard/Eng/727/06 (H2N3) inactivated viral preparation (Influenza A virus A/mallard/Eng/727/06 (H2N3)).
Test [3] concerns the target A/Vietnam/119/2004 (H5N1) inactivated viral preparation (Influenza A virus A/Vietnam/119/2004 (H5N1)).
In test [4] the target is A/Indonesia/05/2005 (H5N1) inactivated viral preparation (Influenza A virus A/Indonesia/05/2005 (H5N1)).
Test [5] has as its target A/HongKong/1073/99 (H9N2) inactivated viral preparation (Influenza A virus A/HongKong/1073/99 (H9N2)).
Test [6] addresses A/HongKong/213/2003 (H5N1) inactivated viral preparation (Influenza A virus A/HongKong/213/2003 (H5N1)).
The target of test [7] is A/TurkTurk/1/2005 (H5N1) inactivated viral preparation (Influenza A virus A/turkey/Turkey/1/2005 (H5N1)).

B1: R2b-E8 (VHH)
VHH: QVQLVESGGGLVQPGGSLRLSCAASGSFFSRYRMGWYRQAPGEQRELVAGITYDDSTNYAGSVKGRFTISRDNAKNTVHLQMNSLKPEDTAVYYCNLNPPGNLYWGQGTQVTVSS
On to B1, for which the EC50 (in general, the midpoint of the concentration-response curve) was determined as 4.98 µg/mL in test [1]; 0.002 µg/mL in test [2]; 1.83 µg/mL in test [3]; 0.8 µg/mL in test [4]; 5.63 µg/mL in test [5]; 1.2 µg/mL in test [6]. The same molecule returned an EC50 in test [7] of 0.89 µg/mL.

B2: R1a-A5 (VHH)
VHH: QVQLVESGGGLVQPGGSLRLSCSASGSAVLFSTYPMSWYRQAPGKQRELVAAVTTDGSTSYADYAKGRFTISRDNAKNTVYLQMNSLKPEDTAVYYCNARDGFFNRYDYWGQGTQVTVSS
Take B2: the EC50 in test [1] stood at 0.27 µg/mL; in test [2], 0.006 µg/mL; in test [3] it was 0.25 µg/mL; in test [4], 0.15 µg/mL; in test [6], 0.27 µg/mL; in test [7] it was 0.13 µg/mL.

B3: R2a-G8 (VHH)
VHH: QLQLAESGGGLVQAGGSLRLSCAASGSTLNNNAIGWFRQAPGKEREGVSCMNSRDGTTNYADSVKGRFTISRDVAKNTVYLQMNSLKPEDTAVYFCAVKGFAPFLIGCPWGKAEYDYWGQGTQVTVSS
Turning to B3, the EC50 in test [1] is 9.67 µg/mL; in test [2], 2.5 µg/mL; in test [3], 3.36 µg/mL; in test [4], 5.7 µg/mL; in test [6], 6.2 µg/mL; in test [7], 1.93 µg/mL.

B4: R1a-H6 (VHH)
VHH: QVQLVESGGGLVQAGDSLRLSCTASVLTFSLYRVGWFRQAPGKEREFVAAIDWGDGPTTYADSVKGRFTISRDNAERTAYLQINSLKPEDTAVYYCGAGNTGSSDRSSSYVHWGQGTQVTVSS
As to B4, in test [5], the EC50 was determined as 5.7 µg/mL.

B5: R1a-B6 (VHH)
VHH: QVQLVESGGGLVQPGGSLRLSCAASGSFFSRYRMGWYRQAPGEQRELVASIAYDGSTSYADPVKGRFTISRDNANTVHLQMYSLKPDDTAVYYCNLDPPGILYWGQGTQVTVSS
Take B5: the EC50 in test [1] stood at 1.32 µg/mL; in test [2] it was 0.102 µg/mL; in test [3], 0.82 µg/mL; in test [4], 0.42 µg/mL; in test [5], 2.3 µg/mL; in test [6] it was 0.37 µg/mL. The EC50 in test [7] was 0.44 µg/mL.

B6: R1a-C5 (VHH)
VHH: QVQLVESGGGLVQPGGSLRLSCAASNDIFSFYTMGWYLQAIGKQREPVAVIGNGGNTNYAESVKGRFTISRDGAKNTAYLQMNSLKPEDTAVYYCMASGPGGLNVWGQGTQVTVSS
Take B6: the EC50 in test [1] was 7.57 µg/mL; in test [2] it was 0.06 µg/mL; in test [3] it was 2.89 µg/mL; in test [4] it was 1.17 µg/mL; in test [5], 4.48 µg/mL; in test [6] it was 2.9 µg/mL. In test [7], this molecule showed an EC50 of 0.15 µg/mL.

B7: R2b-D9 (VHH)
VHH: QVQLVESGGGLVQPGGSLRLSCLASGSAFSLYTMGWYRQAPGNQRELVAAITSGESTNYADSVKGRFTISRDNAKNTVYLQMNSLKPEDTAVYYCNADPLSTGWGQYSYWGQGTQVTVSS
For B7, the EC50 stood at 5.64 µg/mL in test [1]; 0.06 µg/mL in test [2]; 1.81 µg/mL in test [3]; 0.58 µg/mL in test [4]; 2.8 µg/mL in test [6]; 0.76 µg/mL in test [7].
